Assay results from US20220281949A1.

Molecular target: DR1-restricted TCR HA1.7
Test: flow cytometry: HA1.7-transduced primary CD4+ T cells stained with PE wild-type DR1 dextramer and anti-CD4

Substance: wild-type DR1 dextramer specific to Flu-HA306-318 (peptide-MHC)
- percent of cells in the dextramer+ CD4+ quadrant: 30.4%
